The RNAGym collection of RNA variant scans (doi:10.1021/acssynbio.7b00057)

B1: Pistol ribozyme (parent)
chain: GGGUCGUUGUUCCAUAAUCGCGUGGAUAUGGCACGCAAGUUUCUACCGGGCACCGUAAAUGUCCGACUGGAGCCGUUCGGGCGGCUAUAAACAGACCUCAGGCCCGAAGCGUGGCGGCACCUGCCGCCGGUGGUAAAAAAGAUCGGAAGAGCACACGUCU

Variants of: B1
Assay: aptazyme ON/OFF ratio, guanine; higher = stronger switching; co-transcriptional cleavage with and without guanine

Row | Variant | aptazyme ON/OFF ratio
1 | G9A U10C C12G | 1.32
2 | U7G U8A G9A U10G C12G C13U | 1.23
3 | U7A U8G G9U U11C C13A | 1.26
4 | U7A G9C U10C C12U | 1.17
5 | U7C U8C G9A U10C C12G C13U | 1.11
6 | U7C U8A U10G U11A C12A | 1.22
7 | U7G U8C G9U U10C U11C C12G C13A | 1.45
8 | U8C G9U U10G U11A C12A | 1.56
9 | U8A G9A U10A U11A C12U C13G | 1.1
10 | U7A U8A U10G U11C C12A C13G | 1.09
11 | U8G G9A U10G C13A | 0.997
12 | U7C G9U U10C U11A C12A C13A | 1.15
13 | U8C U10C U11G C13A | 1.26
14 | U8C U10C U11G C13U | 1.28
15 | U7A U8C G9U U10G C12A C13U | 1.07
16 | U7C U8G U10G U11G C12G C13U | 1.26
17 | U7G U8C G9U U10C C12G C13A | 1.31
18 | U7A U8A U10C U11C C12G C13U | 1.08
19 | U7A U8C C12U C13U | 1.27
20 | U7G U8A G9C U10A C12U C13A | 1.03
21 | U7G U8A G9C U10A C12U C13U | 1.05

Row | Variant | aptazyme ON/OFF ratio
22 | U7G U8G U10A U11C | 1.09
23 | U8A G9C U10G C12U | 1.28
24 | U7G U8G G9A U10A U11G C12A C13G | 1.03
25 | U8C G9A U10A U11A C12A | 1.3
26 | G9C U10C | 1.52
27 | U8C G9U U10G U11C C12G C13U | 1.2
28 | U7A U8A G9C U10G U11C C12G C13U | 1.22
29 | U7C U10A U11A C12U | 1.2
30 | U7C G9U U11C C12A C13U | 1.14
31 | U8G G9A U10A U11G C12U C13U | 1.56
32 | U10G U11C C12U C13A | 1.2
33 | U7C G9A U10G U11A C12G C13U | 1.25
34 | U8C G9C U10G C12U C13A | 1.12
35 | U7C U8C U10C U11A C12G C13U | 1.2
36 | U7G U8C G9C U10A U11C C12U C13G | 1.3
37 | U7C U8A U10G U11C C12G | 1.53
38 | U7G U8A U10A U11G C13G | 1.36
39 | U7C U8C U10G C12G C13G | 1.11
40 | U7G U10A U11C C12G | 1.3
41 | U7A U8G G9U U10C C13G | 1.21
42 | U7C U11C C12U C13A | 1.39

Row | Variant | aptazyme ON/OFF ratio
43 | U7A G9C U10A U11C C12G C13U | 1.17
44 | U7G G9A U10G U11C C13G | 1.11
45 | G9U U10A C12U C13A | 0.769
46 | U7G G9A U10G U11A C13G | 1.06
47 | U8C G9A U10A C12A C13G | 1.13
48 | G9C U10C U11G C13A | 1.06
49 | U7C U8G G9A U10C U11G C13A | 1.28
50 | U7G U8C G9C U11G C12A | 1.39
51 | U7A U8C G9U U11G C13G | 1.12
52 | U7G U8G G9C U10C U11C C12U C13A | 1.08
53 | U7C U8A G9U U10A U11G | 1.36
54 | U7A U8A U10A C12A C13A | 1.23
55 | G9A U10G U11G C12U C13A | 1.08
56 | U8C | 3.02
57 | U7G U8A G9A U11C C12A | 1.17
58 | U7G U8A | 1.54
59 | U7G G9C U10G U11C C12U C13A | 1.29
60 | U7C U8C G9A U10G U11A C12A C13A | 1.17
61 | U8C G9C U10A U11A C12A | 1.12
62 | U7A U8C G9A U11A C12G | 1.26
63 | U7G U8G G9A U11G C13G | 1.17

Row | Variant | aptazyme ON/OFF ratio
64 | U7A U8A U11C C13U | 1.23
65 | U8A U10C U11C C12U | 1.06
66 | U8A G9C U10A U11G C12U C13A | 1.17
67 | U8C G9U U10C U11A C12U C13A | 1.13
68 | U7C U8C G9U U11G C13A | 1.21
69 | U7C U8C G9A U10G U11G C12A C13U | 1.15
70 | U7A U8C G9U C12A C13A | 1.15
71 | U8A G9U U11A | 1.79
72 | U11G C13U | 1.06
73 | U7C U8A U11C C12A C13G | 1.18
74 | U8C G9C U10C U11C C13A | 1.01
75 | U7G U8G G9C U10G U11C | 1.06
76 | U7A U8A G9C U11C C12A C13A | 1.08
77 | U8A G9C U10G U11A C12A C13G | 1.16
78 | U7G U8G G9C U11C C12G C13A | 1.16
79 | U7A U8G U10A U11G C12G | 1.32
80 | U7A U8G U11C C12U | 1.31
81 | U8G G9A U10C U11G C12U C13G | 1.18
82 | U7G G9C U10A C12G C13U | 1.28
83 | U7A U8A U10A C13A | 1.11
84 | U8C G9A U11C C13A | 1.06
